T1: Msl5-(KH-QUA2) (Saccharomyces cerevisiae, UniProt Q12186 144-271)
T1 sequence: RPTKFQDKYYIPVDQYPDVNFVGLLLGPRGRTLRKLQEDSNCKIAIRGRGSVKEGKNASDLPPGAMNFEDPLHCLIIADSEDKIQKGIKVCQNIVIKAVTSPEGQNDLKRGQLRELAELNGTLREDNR


Experiments:
Msl5-(KH-QUA2) [1] = biological target: T1, Msl5-(KH-QUA2); assay: EMSA
Msl5-(KH-QUA2) [2] = biological target: T1, Msl5-(KH-QUA2); assay: EMSA; remark: listed apart in the source

Row | Binder | binding result (Msl5-(KH-QUA2) [1]) | apparent K (half saturation) (Msl5-(KH-QUA2) [2]) [nM]
1 | UAUACUAUCAA (ssRNA) [11-mer RNA A6U] | no binding | –
2 | UAUACUAACAA (ssRNA) [11-mer branchpoint RNA (WT)] | – | 140
3 | UAUACUAGCAA (ssRNA) [11-mer RNA A6G] | no binding | –
4 | UAUACCAACAA (ssRNA) [11-mer RNA U4C] | no binding | –
5 | UAUACGAACAA (ssRNA) [11-mer RNA U4G] | no binding | –

From paper PMC4338336
